Assay results reported in US20240117018A1.

Columns and labels:
Assay in all cases: cell-based or functional assay
[1] = target: HIV-1 Env of pseudovirus 9004SS_A3_4 (HIV-1)
[2] = target: HIV-1 Env of pseudovirus 191084 B7-19 (HIV-1)
[3] = target: HIV-1 Env of pseudovirus 263-8 (HIV-1)
[4] = target: HIV-1 Env of pseudovirus T257-31 (HIV-1)
[5] = target: HIV-1 Env of pseudovirus 6952.v1.c20 (HIV-1)
[6] = target: HIV-1 Env of pseudovirus BJOX028000.10.3 (HIV-1)
[7] = target: HIV-1 Env of pseudovirus T251-18 (HIV-1)
[8] = target: HIV-1 Env of pseudovirus X2131_C1_B5 (HIV-1)
[9] = target: HIV-1 Env of pseudovirus X2088_c9 (HIV-1)
[10] = target: HIV-1 Env of pseudovirus P1981_C5_3 (HIV-1)
[11] = target: HIV-1 Env of pseudovirus 231965.c01 (HIV-1)
[12] = target: HIV-1 Env of pseudovirus C1080.c03 (HIV-1)
[13] = target: HIV-1 Env of pseudovirus X1193_c1 (HIV-1)
[14] = target: HIV-1 Env of pseudovirus BJOX009000.02.4 (HIV-1)
[15] = target: HIV-1 Env of pseudovirus 89-F1_2_25 (HIV-1)
[16] = target: HIV-1 Env of pseudovirus 3103.v3.c10 (HIV-1)
[17] = target: HIV-1 Env of pseudovirus 6545.v4.c1 (HIV-1)
[18] = target: HIV-1 Env of pseudovirus BJOX025000.01.1 (HIV-1)
[19] = target: HIV-1 Env of pseudovirus 0815.v3.c3 (HIV-1)
[20] = target: HIV-1 Env of pseudovirus A07412M1.vrc12 (HIV-1)
[21] = target: HIV-1 Env of pseudovirus P0402_c2_11 (HIV-1)
[22] = target: HIV-1 Env of pseudovirus 231966.c02 (HIV-1)
[23] = target: HIV-1 Env of pseudovirus 6041.v3.c23 (HIV-1)
[24] = target: HIV-1 Env of pseudovirus 3016.v5.c45 (HIV-1)
[25] = target: HIV-1 Env of pseudovirus C4118.c09 (HIV-1)
[26] = target: HIV-1 Env of pseudovirus X1254_c3 (HIV-1)
[27] = target: HIV-1 Env of pseudovirus T255-34 (HIV-1)
[28] = target: HIV-1 Env of pseudovirus 3301.v1.c24 (HIV-1)
[29] = target: HIV-1 Env of pseudovirus 211-9 (HIV-1)
[30] = target: HIV-1 Env of pseudovirus BJOX010000.06.2 (HIV-1)
[31] = target: HIV-1 Env of pseudovirus 620345.c01 (HIV-1)
[32] = target: HIV-1 Env of pseudovirus C3347.c11 (HIV-1)
[33] = target: HIV-1 Env of pseudovirus 6540.v4.c1 (HIV-1)
[34] = target: HIV-1 Env of pseudovirus T278-50 (HIV-1)
[35] = target: HIV-1 Env of pseudovirus R2184.c04 (HIV-1)
[36] = target: HIV-1 Env of pseudovirus R1166.c01 (HIV-1)

3BNC117 (antibody) was tested, and the IC50 [1] was 0.07 mg/L, the IC80 [1] was 0.18 mg/L and the IC50 [2] was 0.07 mg/L. The IC80 [2] was 0.23 mg/L, the IC50 [3] was 0.005 mg/L and the IC80 [3] was 0.04 mg/L. The IC50 [4] was 0.06 mg/L and the IC80 [4] was 0.37 mg/L.
With 8ANC195 (antibody) the IC50 [1] was 0.17 mg/L, the IC80 [1] was 0.81 mg/L and the IC50 [2] was > 50 mg/L. For the same substance, the IC80 [2] was > 50 mg/L, the IC50 [3] was > 50 mg/L and the IC80 [3] was > 50 mg/L. For the same substance, the IC50 [4] was 0.32 mg/L and the IC80 [4] was 3.89 mg/L.
For 10-1074 (antibody), the IC50 neutralization (TZM.bl) [5] was 0.037 mg/L, the IC80 neutralization (TZM.bl) [5] was 0.138 mg/L and the IC50 neutralization (TZM.bl) [6] was > 50 mg/L. For the same substance, the IC80 neutralization (TZM.bl) [6] was > 50 mg/L, the IC50 neutralization (TZM.bl) [7] was 1.08 mg/L and the IC80 neutralization (TZM.bl) [7] was 7.39 mg/L. For the same substance, the IC50 neutralization (TZM.bl) [8] was 0.016 mg/L, the IC80 neutralization (TZM.bl) [8] was 0.064 mg/L and the IC50 neutralization (TZM.bl) [9] was 0.003 mg/L. The IC80 neutralization (TZM.bl) [9] was 0.014 mg/L, the IC50 neutralization (TZM.bl) [10] was 0.005 mg/L and the IC80 neutralization (TZM.bl) [10] was 0.017 mg/L. The IC50 neutralization (TZM.bl) [11] was > 50 mg/L, the IC80 neutralization (TZM.bl) [11] was > 50 mg/L and the IC50 neutralization (TZM.bl) [12] was > 50 mg/L. For the same substance, the IC80 neutralization (TZM.bl) [12] was > 50 mg/L, the IC50 neutralization (TZM.bl) [13] was 0.083 mg/L and the IC80 neutralization (TZM.bl) [13] was 0.475 mg/L. For the same substance, the IC50 neutralization (TZM.bl) [14] was > 50 mg/L, the IC80 neutralization (TZM.bl) [14] was > 50 mg/L and the IC50 neutralization (TZM.bl) [15] was > 50 mg/L. The IC80 neutralization (TZM.bl) [15] was > 50 mg/L, the IC50 neutralization (TZM.bl) [16] was 0.037 mg/L and the IC80 neutralization (TZM.bl) [16] was 0.101 mg/L. The IC50 neutralization (TZM.bl) [17] was > 50 mg/L, the IC80 neutralization (TZM.bl) [17] was > 50 mg/L and the IC50 neutralization (TZM.bl) [18] was > 50 mg/L. For the same substance, the IC80 neutralization (TZM.bl) [18] was > 50 mg/L, the IC50 neutralization (TZM.bl) [19] was 0.03 mg/L and the IC80 neutralization (TZM.bl) [19] was 0.138 mg/L. The IC50 neutralization (TZM.bl) [20] was < 0.001 mg/L, the IC80 neutralization (TZM.bl) [20] was 0.048 mg/L and the IC50 neutralization (TZM.bl) [21] was 0.012 mg/L. The IC80 neutralization (TZM.bl) [21] was 0.039 mg/L, the IC50 neutralization (TZM.bl) [22] was > 50 mg/L and the IC80 neutralization (TZM.bl) [22] was > 50 mg/L. The IC50 neutralization (TZM.bl) [23] was > 50 mg/L, the IC80 neutralization (TZM.bl) [23] was > 50 mg/L and the IC50 neutralization (TZM.bl) [24] was > 50 mg/L. The IC80 neutralization (TZM.bl) [24] was > 50 mg/L, the IC50 neutralization (TZM.bl) [25] was > 50 mg/L and the IC80 neutralization (TZM.bl) [25] was > 50 mg/L. For the same substance, the IC50 neutralization (TZM.bl) [26] was 0.089 mg/L, the IC80 neutralization (TZM.bl) [26] was 0.297 mg/L and the IC50 neutralization (TZM.bl) [27] was > 50 mg/L. For the same substance, the IC80 neutralization (TZM.bl) [27] was > 50 mg/L, the IC50 neutralization (TZM.bl) [28] was 0.013 mg/L and the IC80 neutralization (TZM.bl) [28] was 0.042 mg/L. The IC50 neutralization (TZM.bl) [29] was 0.112 mg/L, the IC80 neutralization (TZM.bl) [29] was 0.425 mg/L and the IC50 neutralization (TZM.bl) [30] was > 50 mg/L. For the same substance, the IC80 neutralization (TZM.bl) [30] was > 50 mg/L, the IC50 neutralization (TZM.bl) [31] was > 50 mg/L and the IC80 neutralization (TZM.bl) [31] was > 50 mg/L. For the same substance, the IC50 neutralization (TZM.bl) [32] was > 50 mg/L, the IC80 neutralization (TZM.bl) [32] was > 50 mg/L and the IC50 neutralization (TZM.bl) [33] was > 50 mg/L. The IC80 neutralization (TZM.bl) [33] was > 50 mg/L, the IC50 neutralization (TZM.bl) [34] was 2.15 mg/L and the IC80 neutralization (TZM.bl) [34] was 18.3 mg/L. For the same substance, the IC50 neutralization (TZM.bl) [35] was > 50 mg/L, the IC80 neutralization (TZM.bl) [35] was > 50 mg/L and the IC50 neutralization (TZM.bl) [36] was > 50 mg/L. For the same substance, the IC80 neutralization (TZM.bl) [36] was > 50 mg/L.
